Measured values published in IntAct's records for PubMed 21828050.

B1: Kelch-like protein 7 (Homo sapiens), Q8IXQ5 (parent)
chain: MAASGVEKSSKKKTEKKLAAREEAKLLAGFMGVMNNMRKQKTLCDVILMVQERKIPAHRVVLAAASHFFNLMFTTNMLESKSFEVELKDAEPDIIEQLVEFAYTARISVNSNNVQSLLDAANQYQIEPVKKMCVDFLKEQVDASNCLGISVLAECLDCPELKATADDFIHQHFTEVYKTDEFLQLDVKRVTHLLNQDTLTVRAEDQVYDAAVRWLKYDEPNRQPFMVDILAKVRFPLISKNFLSKTVQAEPLIQDNPECLKMVISGMRYHLLSPEDREELVDGTRPRRKKHDYRIALFGGSQPQSCRYFNPKDYSWTDIRCPFEKRRDAACVFWDNVVYILGGSQLFPIKRMDCYNVVKDSWYSKLGPPTPRDSLAACAAEGKIYTSGGSEVGNSALYLFECYDTRTESWHTKPSMLTQRCSHGMVEANGLIYVCGGSLGNNVSGRVLNSCEVYDPATETWTELCPMIEARKNHGLVFVKDKIFAVGGQNGLGGLDNVEYYDIKLNEWKMVSPMPWKGVTVKCAAVGSIVYVLAGFQGVGRLGHILEYNTETDKWVANSKVRAFPVTSCLICVVDTCGANEETLET

Variants of: B1
Conditions: with cul3_human CUL3, Q13618
For A153V, the “effect of a mutation on the interaction” value was “disrupting interaction”.
A153T was tested, and the “effect of a mutation on the interaction” value was “disrupting interaction”.

Variants of: B1
Conditions: with cul3_human CUL3, Q13618
Remark: another data set of the same source
With A153V the “effect of a mutation on the interaction” value was “decreasing interaction”.
